Where two headings read alike, the source gives them in different places. Blank lines part the entries; values can stand above or below the molecule they belong to.
Legend:
ERECTA = ERECTA (UniProt Q42371); test: anti-MYC co-IP, anti-HA blot
GST-PUB31 [1] = target: T1, GST-PUB31 (Arabidopsis thaliana, UniProt Q9FHN9 1-444); test: BLI
T1 chain: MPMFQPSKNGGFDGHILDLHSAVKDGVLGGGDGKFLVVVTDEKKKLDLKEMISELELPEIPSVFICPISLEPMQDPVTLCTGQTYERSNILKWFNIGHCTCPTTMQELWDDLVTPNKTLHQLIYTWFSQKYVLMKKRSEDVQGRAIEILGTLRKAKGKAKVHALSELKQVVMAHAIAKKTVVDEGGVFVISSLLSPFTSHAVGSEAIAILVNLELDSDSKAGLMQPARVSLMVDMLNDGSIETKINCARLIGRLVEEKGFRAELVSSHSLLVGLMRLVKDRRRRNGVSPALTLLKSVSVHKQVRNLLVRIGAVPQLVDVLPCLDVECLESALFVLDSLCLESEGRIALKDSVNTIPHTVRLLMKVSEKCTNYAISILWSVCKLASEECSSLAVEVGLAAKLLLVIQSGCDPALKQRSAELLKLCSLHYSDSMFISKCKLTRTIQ

GST-PUB30 [2] = target: T2, GST-PUB30 (Arabidopsis thaliana, UniProt Q058P4 1-448); test: BLI
T2 chain: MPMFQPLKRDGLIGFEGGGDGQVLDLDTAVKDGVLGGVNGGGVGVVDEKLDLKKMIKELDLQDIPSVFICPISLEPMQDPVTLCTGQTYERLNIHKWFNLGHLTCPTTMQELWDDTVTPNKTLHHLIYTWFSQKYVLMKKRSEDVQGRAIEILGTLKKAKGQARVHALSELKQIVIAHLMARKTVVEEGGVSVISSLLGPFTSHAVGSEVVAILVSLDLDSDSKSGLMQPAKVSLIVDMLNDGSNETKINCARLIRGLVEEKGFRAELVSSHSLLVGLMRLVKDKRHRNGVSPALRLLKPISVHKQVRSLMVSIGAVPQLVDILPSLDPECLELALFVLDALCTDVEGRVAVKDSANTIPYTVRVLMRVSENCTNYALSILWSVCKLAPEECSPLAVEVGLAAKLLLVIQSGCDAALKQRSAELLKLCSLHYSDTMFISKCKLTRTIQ

GST-PUB31 [3] = target: T1, GST-PUB31; test: BLI
GST-PUB30 [4] = target: T2, GST-PUB30; test: BLI

- binding against the reference (ERECTA; reference: wild type PUB31-MYC, sites T151): weaker
Molecule: PUB31 (from UniProt Q9FHN9) PUB31 T151A-MYC

- binding against the reference (ERECTA; reference: wild type PUB30-MYC, sites T155): weaker
Molecule: PUB30 (from UniProt Q058P4) PUB30 T155A-MYC

- Kd (GST-PUB31 [1]): 2 µM
- Kd (GST-PUB30 [2]): 2.4 µM
B1: MBP-BAK1_CD (domain or fragment)
chain: AWWRRKKPQDHFFDVPAEEDPEVHLGQLKRFSLRELQVASDNFSNKNILGRGGFGKVYKGRLADGTLVAVKRLKEERTQGGELQFQTEVEMISMAVHRNLLRLRGFCMTPTERLLVYPYMANGSVASCLRERPESQPPLDWPKRQRIALGSARGLAYLHDHCDPKIIHRDVKAANILLDEEFEAVVGDFGLAKLMDYKDTHVTTAVRGTIGHIAPEYLSTGKSSEKTDVFGYGVMLLELITGQRAFDLARLANDDDVMLLDWVKGLLKEKKLEALVDVDLQGNYKDEEVEQLIQVALLCTQSSPMERPKMSEVVRMLEGDGLAERWEEWQKEEMFRQDFNYPTHHPAVSGWIIGDSTSQIENEYPSGPR

- Kd (GST-PUB31 [3]): 11 µM
- Kd (GST-PUB30 [4]): 15 µM
B2: MBP-ERECTA_CD (domain or fragment)
chain: CRPHNPPPFLDGSLDKPVTYSTPKLVILHMNMALHVYEDIMRMTENLSEKYIIGHGASSTVYKCVLKNCKPVAIKRLYSHNPQSMKQFETELEMLSSIKHRNLVSLQAYSLSHLGSLLFYDYLENGSLWDLLHGPTKKKTLDWDTRLKIAYGAAQGLAYLHHDCSPRIIHRDVKSSNILLDKDLEARLTDFGIAKSLCVSKSHTSTYVMGTIGYIDPEYARTSRLTEKSDVYSYGIVLLELLTRRKAVDDESNLHHLIMSKTGNNEVMEMADPDITSTCKDLGVVKKVFQLALLCTKRQPNDRPTMHQVTRVLGSFMLSEQPPAATDTSATLAGSCYVDEYANLKTPHSVNCSSMSASDAQLFLRFGQVISQNSE
